Source: patent US9074002B2, “PTP1B inhibitors” (Cold Spring Harbor Laboratory, priority 2009, dated 2015)
Entries after “also recorded” stand apart in the source; their conditions may differ.

How the values were obtained:
[1] = biological target: T1, endogenous PTP1B-OX (Homo sapiens, UniProt P18031); assay: Intrabody interaction in 293T cells treated with H2O2 (Ni-NTA pull down / anti-PTP1B immunoprecipitation); type: cell-based; details: 1 mM H2O2 5 minutes, FIGS. 11, 12
T1 construct: endogenous in cells; host or cells: 293T cells (transfected only with the scFv intrabody)
T1 sequence (P18031 1-435): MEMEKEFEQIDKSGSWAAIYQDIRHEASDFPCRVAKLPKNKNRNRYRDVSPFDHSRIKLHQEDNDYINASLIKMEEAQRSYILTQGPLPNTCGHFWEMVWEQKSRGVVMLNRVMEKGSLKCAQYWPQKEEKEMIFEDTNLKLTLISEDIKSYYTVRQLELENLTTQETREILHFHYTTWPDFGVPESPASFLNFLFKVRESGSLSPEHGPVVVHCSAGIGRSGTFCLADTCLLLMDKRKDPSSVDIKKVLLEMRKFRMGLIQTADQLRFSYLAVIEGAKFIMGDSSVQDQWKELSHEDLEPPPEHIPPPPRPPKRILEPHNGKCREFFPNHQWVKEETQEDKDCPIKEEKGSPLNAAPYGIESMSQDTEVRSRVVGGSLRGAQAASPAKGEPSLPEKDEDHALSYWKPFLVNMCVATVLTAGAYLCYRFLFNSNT
Description: (§1) One of the positive candidate scFvs (scFv45) was cloned in pcDNA3.2/V5-GW/D-TOPO expression vector and transiently expressed in mammalian cells as stable intracellular antibody (aka intrabody) (FIG. 10). To detect PTP1B-OX and scFv45 interaction in mammalian cells, scFv45 was overexpressed in 293T cells as described herein (See Example 4) and 48 hours post transfection the cells were serum-starved for 16 hours in growth medium (DMEM, low glucose) without serum (FBS), then incubated with 1 mM H2O2 (in growth medium without serum) for 5 minutes at 37° C. or treated with 20 mM NAC (in growth medium without serum) for 1 hour at 37° C. Cells treated with H2O2 were washed twice with cold (4° C.) PBS and lysed in lysis buffer (25 mM HEPES, pH 7.4, 150 mM NaCl, 0.25% Deoxychloate, 1% TritonX-100, 25 mM NaF, 10 mM MgCl2, 1 mM EDTA, 10% Glycerol, 0.5 mM PMSF, 10 mM Benzamidine, protease inhibitor cocktail). Cells treated with NAC were lysed with lysis buffer containing 2 mM TCEP to ensure a post-lysis reducing environment. Interaction between PTP1B and intrabody45 were tested by pulling down the protein complex from 1 mg of total cell lysate with Ni-NTA agarose or by immunoprecipitating PTP with anti-PTP1B (FG6). For the pull down experiment, Ni-NTA agarose beads were incubated with the lysates (both oxidized and reduced) at 4° C. Protein complex bound to the Ni-NTA agarose beads was pulled down and washed three times; first with lysis buffer containing 20 mM imidazole followed by two more washes with wash buffer (PBS, pH 7.4, 20 mM imidazole, 0.05% BSA, 0.05% Tween-20 and protease inhibitors). Applicant used 20 mM imidazole in the wash buffer to reduce the non-specific binding of proteins with the Ni-NTA agarose beads. The complex was eluted with wash buffer containing 500 mM imidazole with gentle shaking at 4° C. and the eluate was mixed with SDS sample buffer with DTT. For the immunoprecipitation experiments, 1 mg of total cell lystates (both oxidized and reduced) was incubated with anti-PTP1B antibody (FG6) at 4° C. The interacting protein complex was immunoprecipitated after incubating the lysate-antibody mixture with protein A/G Sepharose at 4° C. After immunoprecipitation, Sepharose beads were washed three times; first with lysis buffer followed by two more washes with wash buffer (PBS, pH 7.4, 0.05% BSA, 0.05% Tween-20 and protease inhibitors). The Sepharose beads were then heated at 90° C. in 2×SDS sample buffer with DTT. Proteins from the pulled down or immunoprecipitated complex were separated by SDS-PAGE. PTP was detected with anti-PTP1B antibody (FG6) and the intrabodies were detected with anti-HA (3F10)-HRP antibody [anti-HA (3F10)-HRP, Roche] by immunoblotting.
In the initial in vitro phosphatase screening assay using reversibly oxidized (with H2O2) recombinant PTP1B, Applicant found four different PTP1B-OX specific scFvs (scFv45, scFv57, scFv64 and scFv106) from the initial pool of 12 different scFvs. […] Applicant has also shown that scFv45, expressed as an intrabody in mammalian cells, can bind to endogenous PTP1B-OX but not endogenous PTP under reducing conditions. Further assessment was carried out to identify additional PTP1B-OX-specific intrabodies. Additional scFvs have been subcloned in pcDNA3.2/V5-GW/D-TOPO mammalian expression vector (FIG. 10) from their respective phagemid constructs. After transient overexpression of these scFvs as intrabodies in 293T cells, the interaction between endogenous PTP1B and these intrabodies in both H2O2-treated cells and cells was observed under reducing condition (treated with NAC and lysed with lysis buffer containing TCEP). […] All can be used in the methods and compositions described herein. Additional scFvs, such as some or all of the 137 selected individual scFvs from the library, can be similarly tested by in vitro screening and/or by binding assay in mammalian cells.

[2] = biological target: T2, endogenous PTP1B under reducing conditions (Homo sapiens, UniProt P18031); assay: Intrabody interaction in 293T cells under reducing condition (NAC, TCEP) (Ni-NTA pull down / immunoprecipitation); type: cell-based; details: 20 mM NAC, lysis buffer with 2 mM TCEP, FIGS. 11, 12
T2 construct: endogenous in cells; host or cells: 293T cells (transfected only with the scFv intrabody)
T2 sequence (P18031 1-435): T1 sequence (P18031 1-435)
Description: as §1
In the initial in vitro phosphatase screening assay using reversibly oxidized (with H2O2) recombinant PTP1B, Applicant found four different PTP1B-OX specific scFvs (scFv45, scFv57, scFv64 and scFv106) from the initial pool of 12 different scFvs. […] Applicant has also shown that scFv45, expressed as an intrabody in mammalian cells, can bind to endogenous PTP1B-OX but not endogenous PTP under reducing conditions. Further assessment was carried out to identify additional PTP1B-OX-specific intrabodies. Additional scFvs have been subcloned in pcDNA3.2/V5-GW/D-TOPO mammalian expression vector (FIG. 10) from their respective phagemid constructs. […]

[3] = biological target: T3, PTP1B (reduced, active) (Homo sapiens, UniProt P18031); assay: Direct effect of scFvs/antibodies on PTP1B phosphatase activity (32P-pTyr-RCML substrate); type: biochemical; details: 32P-labeled pTyr-RCML substrate, FIG. 1
T3 construct: made in house; host or cells: E. coli BL21 (pET19b)
T3 sequence (P18031 3-277 limits assumed): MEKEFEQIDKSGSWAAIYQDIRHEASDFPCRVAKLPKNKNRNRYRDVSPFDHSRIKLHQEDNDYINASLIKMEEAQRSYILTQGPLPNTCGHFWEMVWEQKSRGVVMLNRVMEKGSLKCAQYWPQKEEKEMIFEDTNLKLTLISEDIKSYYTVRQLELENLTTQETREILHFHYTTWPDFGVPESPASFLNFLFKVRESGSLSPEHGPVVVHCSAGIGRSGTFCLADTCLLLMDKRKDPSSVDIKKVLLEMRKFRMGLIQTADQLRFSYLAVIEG
Description: Applicant's hypothesis was that scFvs that are able to bind to and stabilize the oxidized conformation of PTP1B in solution would inhibit reactivation by reducing agent, but have no direct inhibitory effect on phosphatase activity in assays in vitro. Activity was measured using ^32P-labeled pTyr-Reduced Carboxamidomethylated and Maleylated Lysozyme as substrate. Applicant established conditions in which wild type PTP1B could be reversibly oxidized in vitro. PTP1B was inactivated following addition of H2O2. […] Applicant validated this approach further, by testing the effects of expressing one of the scFvs (scFv45) as a single chain antibody fragment “intrabody” to PTP1B, using 293T cells as the expression system. This intrabody was expressed transiently and then tested for effects on insulin signaling, focusing initially on the tyrosine phosphorylation status of the beta-subunit of the insulin receptor and insulin receptor substrate (IRS-1).
Reduced carboxamidomethylated and maleylated lysozyme (RCML) was labeled with ^32P using recombinant GST-FER kinase to stoichiometries up to 0.8 (mol ^32P incorporated/mol of protein). This ^32P-Labeled phospho-tyrosyl RCML was used as the substrate in the in-solution phosphatase assay for screening the conformation sensor scFvs. Recombinant PTP1B was reversibly oxidized and transiently inactivated with H2O2 (5× molar excess of the protein). […] Purified bacterially expressed scFvs (100× molar excess of PTP1B) were incubated with PTP after H2O2 treatment and its removal and the effect of individual scFv on stabilizing the reversibly oxidized conformation was assessed by the phosphatase assay under reducing condition.
In order to screen the isolated scFvs for those that inhibit reactivation of PTP1B-OX by reducing agent, but have no direct inhibitory effect on phosphatase activity in assays in vitro, the effect of six scFvs (scFv20, scFv34, scFv45, scFv57, scFv64 and scFv106) on PTP1B activity was determined. PTP1B activity was measured using 32P-labeled pTyr-Reduced Carboxamidomethylated and Maleylated Lysozyme as substrate (FIGS. 1 and 2). Addition of the reducing agent TCEP alone had no substantial effect in PTP1B activity was assessed.

[4] = biological target: T4, PTP1B-OX (Homo sapiens, UniProt P18031); assay: In vitro binding assay, purified recombinant PTP1B (37 kDa) and purified scFv, Ni-NTA pull down; details: purified proteins, scFv in molar excess, 2 hours at 4° C.; FIG. 9
T4 construct: made in house; host or cells: E. coli BL21 (pET19b)
T4 sequence (P18031 3-277): T3 sequence (P18031 3-277 limits assumed)
Description: (§2) They established conditions in which PTP1B is reversibly oxidized by H2O2 in solution (FIG. 8). An artificial protein substrate RCML, in which tyrosine was phosphorylated with ^32P using recombinant GST-FER kinase was used in this assay to measure the phosphatase activity. Recombinant PTP (37 kDa) was incubated with increasing concentration (50 μM to 100 mM) of H2O2. A quick buffer exchange was done to remove the H2O2 and reducing agent (TCEP) was added to reactivate the enzyme.
(§3) In the in vitro binding assay, purified PTP was reversibly oxidized with […] followed by a quick buffer exchange to remove H2O2 (FIG. 8). Purified scFv was incubated in molar excess with PTP1B-OX or with PTP under reducing condition (with 2 mM TCEP) in binding buffer (20 mM HEPES, pH 7.4, 300 mM NaCl, 0.05% BSA, 0.05% Tween-20 and 10 mM imidazole) for 2 hours at 4° C. Ni-NTA agarose was added and incubated for one hour at 4° C. Protein complex bound to Ni-NTA agarose beads was pulled down and washed (three times, 5 minutes each, at 4° C.) with binding buffer containing 20 mM imidazole to reduce non-specific binding to the beads. The protein complex was eluted from the Ni-NTA agarose beads with 500 mM imidazole (in binding buffer, pH 7.4) for 15 minutes at 4° C. with gentle shaking. The complex was separated by SDS-PAGE and PTP1B was detected with anti-PTP1B antibody (FG6) and scFv was detected with anti-HA antibody [anti-HA (3F10)-HRP, Roche] by immunoblotting. Eight different scFvs (scFvs 20, 21, 24, 28, 45, 48, 57, and 105), expressed and purified from bacterial cultures were tested by this in vitro binding experiment.

[5] = biological target: T5, PTP1B under reducing condition (Homo sapiens, UniProt P18031); assay: In vitro binding assay, purified recombinant PTP1B (37 kDa) and purified scFv, Ni-NTA pull down, reducing condition; details: with 2 mM TCEP; FIG. 9
T5 construct: made in house; host or cells: E. coli BL21 (pET19b)
T5 sequence (P18031 3-277 limits assumed): T3 sequence (P18031 3-277 limits assumed)
Description: as §2, §3

B1: scFv102: scFv, SEQ ID NO: 130 and 162 (protein)
scFv: MKKTAIAIAVALAGFATVAQAALTQPSSVSANPGETVKITCSGGSGSYGWYQQESPGSAPVTVIYYNDKRPSDIPSRFSGSASGSTATLTIAGVRAEDEAVYFCGSWDSSTSAGIFGAGTALTVLGQSSRSSAVTLDESGGGLQTPGGGLSLVCKASGFSSSHGMGWMRQAPGKGLEFVAGIRSDGSSTAYGAAVDGRATITRDDGQSTVTLQLNNLRAEDTATYFCAKTNSYNSAGIIDAWGHGTEVIVSSTSGQAGQHHHHHHGAYPYDVPDYAS
binding of intrabody to endogenous PTP1B-OX [1]: bound to endogenous PTP1B-OX strongly; also recorded: co-pulldown of PTP1B-OX in the presence of H2O2
binding of intrabody to endogenous PTP1B under reducing conditions [2]: not in the presence of NAC and TCEP

B2: scFv67: scFv, SEQ ID NO: 100 and 161 (protein)
scFv: MKKTAIAIAVALAGFATVAQAALTQPSSVSANPGGTVKITCSGSSSAYGYGWYQQKSPGSAPVTVIYNNNKRPSNIPSRFSGSKSGSTGTLTITGVQAEDEAVYFCGSEDSSTDAIFGAGTTLTVLGQSSRSSAVTLDESGGGLQTPGGALSLVCKASGFTFSSYDMGWVRQAPGKGLEYVAGITNDGRYASYGSAVDGRATISRDNGQSTVRLQLNNLRAEDTGTYYCARDDGSGWTGNTIDTWGHGTEVIVSSTSGQAGQHHHHHHGAYPYDVPDYAS
binding of intrabody to endogenous PTP1B-OX [1]: bound to endogenous PTP1B-OX strongly; also recorded: co-pulldown of PTP1B-OX in the presence of H2O2
binding of intrabody to endogenous PTP1B under reducing conditions [2]: not in the presence of NAC and TCEP

B3: scFv20: scFv, SEQ ID NO: 53 (protein)
scFv: MKKTAIAIAVALAGFATVAQAALTQPSSVSANLGGIVEITCSGSSGSYGWYQQKSPGSAPVTVIYYNDKRPSNIPSRFSGSGSGSTNTLTIAGVRAEDEAVYYCGNEDSSGAAFGAGTTLTVLGQSSRSSAVTLDESGGGLQTPGGGLSLVCKASGFTFSDYDMFWVRQAPSKGLEFVAAITSSGTGTKYGAAVKGRATISKDNGQRTVRLQLNSLGAEDTGTYYCARSDADSTTWSAGEIDAWGHGTEVIVSSTSGQAGQHHHHHHGAYPYDVPDYAS
direct effect on PTP1B activity [3]: no direct inhibition of PTP activity
binding to PTP1B-OX in vitro [4]: no significant binding
binding to PTP1B under reducing condition in vitro [5]: no significant binding

B4: scFv34: scFv, SEQ ID NO: 67 and 163 (protein)
scFv: MKKTAIAIAVALAGFATVAQAALTQPSSVSANPGGTVEITCSGSSGSHGWYQQKSPGSAPVTVIYDNTNRPSDIPSRFSGSLSGSTATLTITGVQAEDEAVYYCGSFDTNSDSGYVGIFGARTTLTVLGQSSRSSTETLDDSGGGLQTPGGALSLVCNASGFTFISYDMFWVRQAPGKGLEFVTQINSAGSYTNYGSAVNGRATISRNDGQITVRLQLNDLTADDTGIYFCAESASGYDYSGSDAGDINAWGHGTEVVVSSTSGQAGQHHHHHHGAYPYDVPDYAS
direct effect on PTP1B activity [3]: no direct inhibition of PTP activity
binding of intrabody to endogenous PTP1B-OX [1]: bound weakly to PTP1B-OX
